The target of the assay is SBP-Asi2 (S. cerevisiae) (UniProt P53895).
UniProt P53895, sequence (P53895 whole entry): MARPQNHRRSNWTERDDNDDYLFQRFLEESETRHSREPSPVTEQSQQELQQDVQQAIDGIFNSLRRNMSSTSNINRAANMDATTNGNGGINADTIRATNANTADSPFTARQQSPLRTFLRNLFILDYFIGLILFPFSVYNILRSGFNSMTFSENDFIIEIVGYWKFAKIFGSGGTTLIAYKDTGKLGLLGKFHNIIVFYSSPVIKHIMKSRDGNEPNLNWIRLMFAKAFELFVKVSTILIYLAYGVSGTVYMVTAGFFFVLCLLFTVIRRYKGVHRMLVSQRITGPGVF

TM68-MBP, sequence (P10614 1-68): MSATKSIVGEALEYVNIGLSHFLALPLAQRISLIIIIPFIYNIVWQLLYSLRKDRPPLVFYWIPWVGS

Consider “TM68-MBP (from UniProt P10614 1-68) (domain or fragment)”, for which the ubiquitination of TM68-MBP in proteoliposomes with only the Asi1/Asi3 subcomplex (no Asi2), against proteoliposomes with the entire Asi complex; Ubi Mix, 60 min came to 28%.

The values above are taken from publication PMC6941229.
